Consider one substance from paper PMC3115443.

The target of the assay is 326^βB (TP0326 β-barrel construct with a C-terminal His-tag) (Treponema pallidum subspecies pallidum (Nichols-Farmington strain)). As to the kind of experiment: native gel or EMSA. Background: In EMSA bound probe runs differently from free probe, usually more slowly.

As for “326^βB (TP0326 β-barrel construct with a C-terminal His-tag) (domain or fragment)”, the stoichiometry N (usually the number of molecules, sites or subunits per partner or assembly) is 3.
